According to patent US10858422B2, “Methods for treating systemic lupus erythematosus with an anti-apolipoprotein B antibody” (Abcentra, LLC, priority 2016, dated 2020):
“And” between values parts separate entries of the source, which are not always exact repeats. Equal values may be shown once. Marks after values point to notes of the source that are not given here.

Tests used:
[1] = in vivo
[2] = system: B6.lpr.ApoE−/− mice; assay: Atherosclerosis: en face Oil Red O of aortic arch, subvalvular plaque area, Oil Red O and CD68; assay type: in vivo, mouse; details: for reduction of subvalvular plaque area / development: three injections of the antibody
[3] = system: B6.lpr.ApoE−/− mice; assay: Carotid artery mRNA expression; assay type: in vivo, mouse; details: 1 mg i.p. weekly x3; vs control IgG
Experimental: Statistics: Clinical comparisons from human individuals were evaluated and statistically tested using SPSS software. For same-individual analyses, paired nonparametric Wilxocon rank test was used. For normally distributed data, Students t-test was used. For not normally distributed data, Mann-Whitney rank test was used. Numerical data is expressed as mean±standard deviation if normally distributed or median±intra-quartile range if not normally distributed. Carotid gene expressions were log transformed and expressed as arbitrary units (A.U) and relative fold change respectively. All data was plotted in GraphPad Prism and significance levels used are *=p<0.05 **=p<0.01, ***=p<0.001.

[4] = Phase I (FIH) dose-escalation trial, single and multiple doses: pharmacokinetics; set-up: species or system human; details: in vivo
Experimental: (§1) Study population: 80 healthy subjects with elevated LDL cholesterol.
Orticumab was provided as a sterile liquid and contained no preservatives. Each single-use, 10 mL vial was designed to deliver 250 mg of MLDL1278A. The Drug Product was formulated as 25 mg/mL orticumab in 20 mM sodium acetate, 0.15 M sodium chloride, pH 5.5.
Route of Administration: intravenous injection (Subcutaneous injection was also examined).
The exact explanation for these unusual PK characteristics was unknown at that time. The mean terminal half-life was similar after both single and multiple administrations of orticumab and was generally in the range of 2-3 weeks and thus in agreement with other therapeutic monoclonal antibodies.

[5] = Second Phase I (Ph1): single-dose bioavailability after subcutaneous and intravenous administration; details: for tmax: Median (min-max)
[6] = system: healthy subjects with elevated LDL cholesterol; assay: Phase I dose-escalation trial: biomarkers and lipids; assay type: in vivo, human; details: healthy volunteers
Description: as §1
The panel included: oxLDL, Lp-PLA2, hsCRP, sCD36, MCP-1, ICAM-1, IL-10, VCAM-1, IL-1ra, TNFα, insulin, and MMP-3.

[7] = system: SLE ApoE−/− mice; assay: Passive immunization: spleen cells and plasma biomarkers; assay type: in vivo, mouse
Experimental: SLE ApoE^−/− mice were treated with three weekly injections of either orticumab or an irrelevant antibody as control. Six-week old mice were fed with HFD, and were injected at weeks 18, 19 and 20 with orticumab (one dose of 1 mg per week, IP injections), and sacrificed for analysis in week 22. Plaque area and composition were determined in the aortic root.

[8] = system: patients with atherosclerosis and evidence of carotid or aortic plaque inflammation; assay: Phase IIa: arterial inflammation by FDG-PET/CT (index vessel MDS-TBR); assay type: in vivo, human; details: versus placebo; single (1245 mg IV) and multiple infusion groups
Experimental: The study enrolled 147 participants (83% male; mean age 63.0±9.0 years) with atherosclerosis and evidence of carotid or aortic plaque inflammation, measured by FDG-PET/computed tomography (CT). Because there is poor correlation between serum LDL levels and both serum and plaque oxLDL levels, patients were enrolled with a relatively wide range of serum LDL levels (fasting LDL>60 mg/dL at screening, which includes patients both above and below National Cholesterol Education Program Adult Treatment Panel III treatment goals). 139 patients completed the study.
The study consisted of a 28-day screening period, a 78-day treatment period, and a 90-day follow-up period. […] During the screening period, patient acceptability for the study was assessed on the basis of medical history, concomitant medications, physical examination, and clinical laboratory test results. Once a patient passed this initial screening phase, acceptability for study participation was confirmed on the basis of a TBR>1.8 in the qualifying vessel, as quantified by FDG-PET/CT. […]
The primary outcome variable was change in index vessel MDS-TBR (most diseased segment-target to background ratio) measured by FDG-PET/CT from baseline to week 12. Arterial FDG uptake was assessed as target to-background ratio (TBR). […]

[9] = male mice, 1 mg i.p. weekly for three weeks, vs control IgG
[10] = Intravenous (Cohort A, Period 1), single dose 360 mg, Mean (SD)
[11] = Subcutaneous (Cohort A, Period 2), single dose 360 mg, Mean (SD)
[12] = Subcutaneous (Cohort B), single dose 360 mg, Mean (SD)

In the case of “orticumab: recombinant human IgG1 against MDA-modified peptide 45 of ApoB100; heavy chain SEQ ID NO: 316, light chain SEQ ID NO: 317”, the “subjects on active treatment reporting adverse events” value [1] is reported as 44 of the 64, the “treatment-emergent adverse events reported on active treatment” value [1] is reported as 115 (76.2%) and the “lipid accumulation in subvalvular plaques” value [2, 9] is reported as “trend towards decreased”. The “reduction of CD68-macrophage subvalvular plaque staining” value [2, 9] was 30.5%, the “reduction of atherosclerosis in the aortic arch” value [2, 9] was 42.8% and the “reduction of subvalvular plaque area / development” value [2] was 50%. The “reduction of subvalvular plaque area / development” value ([2]; listed as MDA-P45 specific antibody) was 50.3%, the “mRNA expression of IL-10 or MCP-1 in carotid arteries” value [3] was “no effect” and the mean terminal half-life ([4]; human) was 2-3 weeks. The Cmax ([4]; human, iv, 1.25 mg/kg) was 20600 ng/mL, the Cmax ([4]; human, iv, 5 mg/kg) was 105000 ng/mL and the Cmax ([4]; human, sc, 1.25 mg/kg) was 2990 ng/mL. The “Cmax, max exposure IV vs SC” value ([4]; 1.25 mg/kg) was 6.9 times, the ½-life ([4]; 1.25 mg/kg) was 20 days and the “C ≥ 1 μg/mL” value ([4]; iv, 1.25 mg/kg) was “Day 28”. For the same substance, the “C ≥ 4 μg/mL” value ([4]; iv, 1.25 mg/kg) was “Day 3 (<Day 7)”, the “C ≥ 12 μg/mL” value ([4]; iv, 1.25 mg/kg) was 11 h and the “C ≥ 1 μg/mL” value ([4]; iv, 5 mg/kg) was “Day 56”. The “C ≥ 4 μg/mL” value ([4]; iv, 5 mg/kg) was “Day 14”, the “C ≥ 12 μg/mL” value ([4]; iv, 5 mg/kg) was “Day 3” and the “C ≥ 1 μg/mL” value ([4]; iv, 15 mg/kg) was “Day 70*”. For the same substance, the “C ≥ 4 μg/mL” value ([4]; iv, 15 mg/kg) was “Day 42”, the “C ≥ 12 μg/mL” value ([4]; iv, 15 mg/kg) was “Day 28” and the “C ≥ 1 μg/mL” value ([4]; sc, 1.25 mg/kg) was “Day 28”. For the same substance, the “C ≥ 4 μg/mL” value ([4]; sc, 1.25 mg/kg) was “Not achieved”, the “C ≥ 12 μg/mL” value ([4]; sc, 1.25 mg/kg) was “Not achieved” and the “Cmax of SC dose versus threshold” value ([4]; sc, 1.25 mg/kg) was “does not reach threshold of 4-12 μg/mL”. For the same substance, the “AUC(0-inf)” value [5, 10] was 412 (87.3) μg * d/mL, the “AUC(0-last)” value [5, 10] was 380 (76.4) μg * d/mL and the CL [5, 10] was 0.906 (0.168) L/d. For the same substance, the Cmax [5, 10] was 84.3 (16.9) μg/mL, the MRT [5, 10] was 16.9 (3.02) d and the Vss [5, 10] was 15.2 (3.25) L. The Vz [5, 10] was 26.3 (5.34) L, the tmax ([5]; Intravenous (Cohort A, Period 1), single dose 360 mg) was 0.04 (0.04-0.04) d and the Cmax ([5]; Ph1 trial, single dosing, 360 mg IV) was 84.3 µg/mL. For the same substance, the Cmax ([5]; Ph1 trial, single dosing, 360 mg SC) was 9.15 µg/mL, the Cmax ([5]; Ph1 trial, single dosing, 360 mg SC 70-90 days after IV dosing) was 15.1 µg/mL and the “AUC(0-last)” value [5, 11] was 215 (60.0) μg * d/mL. The Cmax [5, 11] was 15.1 (4.50) μg/mL, the “AUC(0-inf)” value ([5]; Subcutaneous (Cohort A, Period 2), single dose 360 mg, Mean (SD), corrected by subtracting AUCresidual from Period 1) was 236 (69.7) μg * d/mL and the tmax ([5]; Subcutaneous (Cohort A, Period 2), single dose 360 mg) was 3.99 (1.96-6.91) d. For the same substance, the “AUC(0-inf)” value [5, 12] was 194 (45.6) μg * d/mL, the “AUC(0-last)” value [5, 12] was 178 (39.6) μg * d/mL and the Cmax [5, 12] was 9.15 (3.86) μg/mL. The tmax ([5]; Subcutaneous (Cohort B), single dose 360 mg) was 3.91 (1.00-4.02) d, the t½ ([5]; both routes of administration) was “about 20 days” and the “increase of SC bioavailability by a prior IV dose” value ([5]; in vivo) was “approximately 9%”. For the same substance, the median tmax ([5]; single SC dose) was 96 h, the “Cmax of SC dose versus threshold” value ([5]; single SC dose 360 mg) was “falls within range of 4-12 μg/mL” and the “maximum mean serum concentration” value ([5]; single SC dose 360 mg, Cohort A, Period 2) was 15.1 µg/mL. The “maximum mean serum concentration” value ([5]; single SC dose 360 mg, Cohort B) was 9.15 µg/mL, the “absolute bioavailability based on AUC(0-inf)” value ([5]; single SC dose of 360 mg) was 47% and the bioavailability ([5]; single SC dose of 360 mg after at least 70 days washout from an initial IV dose) was 56%. The ½-life ([5]; single dose 360 mg IV) was 33.5 days, the ½-life ([5]; single dose 360 mg SC) was 24.3 days and 24 days and the “Cmax, max exposure IV vs SC” value ([5]; single dose at 360 mg (4.34 mg/kg)) was 9.2 times. For the same substance, the “biomarkers (oxLDL, Lp-PLA2, hsCRP, sCD36, MCP-1, ICAM-1, IL-10, VCAM-1, IL-1ra, TNFα, insulin, MMP-3)” value [6] was “No treatment-induced general effects”, the “spleen monocytes or B cells” value ([7]; end of experiment) was “no differences” and the “plasma levels of oxidized LDL and plasma cytokines” value ([7]; mouse, in vivo) was “no differences”. For the same substance, the “arterial inflammation (index vessel MDS-TBR), baseline to week 12” value [8] was “did not significantly reduce”.
